In the experiment the target is FOXA1-ΔHx (UniProt P35582). In words: pull-down.

For the substance “H3/H4 tetramers (from UniProt P84233;P62799) (complex)”, the pull-down relative to wild-type FOXA1 (fraction of wild type) came out at 0.33.

The values are drawn from PMC7901023.
